Data from patent US6770444.

Target: human Ob-Rb (human) (UniProt P48357)
Experiment: SPA displacement of [125I] leptin, Cos-7 cells transfected with human Ob-Rb

Chain of UniProt P48357 (P48357 22-1165): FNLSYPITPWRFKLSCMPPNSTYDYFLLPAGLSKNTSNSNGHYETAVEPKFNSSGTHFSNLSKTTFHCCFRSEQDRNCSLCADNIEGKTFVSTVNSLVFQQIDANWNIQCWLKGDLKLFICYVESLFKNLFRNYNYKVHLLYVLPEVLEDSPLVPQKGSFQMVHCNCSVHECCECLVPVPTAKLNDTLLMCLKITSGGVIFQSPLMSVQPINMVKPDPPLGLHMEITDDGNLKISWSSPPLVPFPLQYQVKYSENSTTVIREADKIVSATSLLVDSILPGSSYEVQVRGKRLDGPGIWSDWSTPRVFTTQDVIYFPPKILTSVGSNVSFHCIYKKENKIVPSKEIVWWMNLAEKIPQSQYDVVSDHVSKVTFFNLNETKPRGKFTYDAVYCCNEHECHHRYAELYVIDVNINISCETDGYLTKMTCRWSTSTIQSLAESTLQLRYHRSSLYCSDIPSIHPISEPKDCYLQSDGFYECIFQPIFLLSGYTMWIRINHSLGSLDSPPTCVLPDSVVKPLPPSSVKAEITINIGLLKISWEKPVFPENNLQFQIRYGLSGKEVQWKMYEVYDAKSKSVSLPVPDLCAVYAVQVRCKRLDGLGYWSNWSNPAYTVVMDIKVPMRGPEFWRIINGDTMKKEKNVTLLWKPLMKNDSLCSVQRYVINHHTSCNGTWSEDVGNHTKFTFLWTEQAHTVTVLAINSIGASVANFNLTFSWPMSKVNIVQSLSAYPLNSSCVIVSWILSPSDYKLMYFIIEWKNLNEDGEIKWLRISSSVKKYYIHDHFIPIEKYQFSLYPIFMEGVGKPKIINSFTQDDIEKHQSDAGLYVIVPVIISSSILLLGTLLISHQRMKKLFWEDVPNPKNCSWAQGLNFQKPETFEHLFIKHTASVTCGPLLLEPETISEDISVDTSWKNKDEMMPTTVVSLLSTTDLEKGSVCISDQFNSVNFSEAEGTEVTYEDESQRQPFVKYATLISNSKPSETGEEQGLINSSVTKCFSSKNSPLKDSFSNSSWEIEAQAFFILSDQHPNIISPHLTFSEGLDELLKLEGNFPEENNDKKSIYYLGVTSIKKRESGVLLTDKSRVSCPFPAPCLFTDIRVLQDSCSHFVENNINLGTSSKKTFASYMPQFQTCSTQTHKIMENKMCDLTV

- IC50: 10 to 15 nM
Substance: leptin (unlabeled) (ligand)
